{"source": "paper PMC8689640", "about": "(ACS Synthetic Biology, 2021)", "key": {"[1]": {"target": "ΔVP1, Murine polyomavirus VP1 with the putative nuclear localization signal deleted (Murine polyomavirus) (UniProt P03090)", "experiment": "SEC-MALS"}, "SEC-MALS": {"target": "the molecule itself", "experiment": "SEC-MALS"}}, "data": [{"molecule": "ΔVP1, Murine polyomavirus VP1 with the putative nuclear localization signal deleted (from UniProt P03090 1-383) (natural protein)", "values": [{"measurement": "stoichiometry N", "setting": "[1]", "result": 72, "unit": "pentamers"}]}, {"molecule": "wild-type Murine polyomavirus VP1 (natural protein, UniProt P03090 1-383, looked up) MAPKRKSGVSKCETKCTKACPRPAPVPKLLIKGGMEVLDLVTGPDSVTEIEAFLNPRMGQPPTPESLTEGGQYYGWSRGINLATSDTWIPRNNTLPTWSMAKSSFPCLNEDLTCDTLQMWEAVSVKTEVVGSGSLLDVHGFNKTHRFSKHKGNSTPVEGSQYHVFAGGGEPLDLQGLVTDARTKYKEEGVVTIKTITKKDMVNKDQVLNPISKAKLDKDGMYPVEIWHPDPAKNENTRYFGNYTGGTTAPPVLQFTNTLTTVLLDENGVGPLCKGEGLYLSCVDIMGWRVTRNYVSSLEKGFPRYFKITLRKRWVKNPYPMASLISSLFNNMLPQVQGQPMEGENTQVEEVRVYDGTEPVPGDPDMTRYVDRFGKTKTVFPGN", "values": [{"measurement": "stoichiometry N", "setting": "SEC-MALS", "result": "~72", "unit": "pentamers"}]}]}
